The values that follow come from PMC3587332 (FEBS letters, 2012).

Test [1] has as its target Pap1-GST (S. cerevisiae, UniProt P29468 1-568). Nature of the test: pull-down.
Test [2] deals with T1, Pap1-His6 (S. cerevisiae, UniProt P29468 1-568). Put plainly: pull-down.
The target in test [3] is T1, Pap1-His6. Put plainly: co-IP.
Test [4] deals with ΔN-Pap1-His6 (S. cerevisiae, UniProt P29468 19-568). Put plainly: co-IP.
The target of test [5] is ΔN-Pap1-GST (S. cerevisiae, UniProt P29468 19-568). Put plainly: pull-down.
Sequence of ΔN-Pap1-GST (P29468 19-568, stated change not applied): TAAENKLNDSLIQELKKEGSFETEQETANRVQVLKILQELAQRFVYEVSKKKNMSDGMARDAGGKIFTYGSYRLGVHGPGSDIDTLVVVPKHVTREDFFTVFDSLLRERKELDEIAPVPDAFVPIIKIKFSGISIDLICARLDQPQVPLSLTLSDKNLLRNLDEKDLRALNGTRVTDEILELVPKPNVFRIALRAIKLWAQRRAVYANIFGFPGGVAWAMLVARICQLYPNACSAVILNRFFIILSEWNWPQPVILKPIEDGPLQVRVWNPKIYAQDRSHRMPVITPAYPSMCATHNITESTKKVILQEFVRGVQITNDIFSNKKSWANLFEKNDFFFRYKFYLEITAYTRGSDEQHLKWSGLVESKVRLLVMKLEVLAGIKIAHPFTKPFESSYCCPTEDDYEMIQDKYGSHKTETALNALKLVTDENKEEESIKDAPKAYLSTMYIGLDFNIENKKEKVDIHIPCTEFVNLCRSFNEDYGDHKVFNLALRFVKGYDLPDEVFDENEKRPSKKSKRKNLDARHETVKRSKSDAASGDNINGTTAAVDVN

Sequence of Pap1-GST (P29468 whole entry): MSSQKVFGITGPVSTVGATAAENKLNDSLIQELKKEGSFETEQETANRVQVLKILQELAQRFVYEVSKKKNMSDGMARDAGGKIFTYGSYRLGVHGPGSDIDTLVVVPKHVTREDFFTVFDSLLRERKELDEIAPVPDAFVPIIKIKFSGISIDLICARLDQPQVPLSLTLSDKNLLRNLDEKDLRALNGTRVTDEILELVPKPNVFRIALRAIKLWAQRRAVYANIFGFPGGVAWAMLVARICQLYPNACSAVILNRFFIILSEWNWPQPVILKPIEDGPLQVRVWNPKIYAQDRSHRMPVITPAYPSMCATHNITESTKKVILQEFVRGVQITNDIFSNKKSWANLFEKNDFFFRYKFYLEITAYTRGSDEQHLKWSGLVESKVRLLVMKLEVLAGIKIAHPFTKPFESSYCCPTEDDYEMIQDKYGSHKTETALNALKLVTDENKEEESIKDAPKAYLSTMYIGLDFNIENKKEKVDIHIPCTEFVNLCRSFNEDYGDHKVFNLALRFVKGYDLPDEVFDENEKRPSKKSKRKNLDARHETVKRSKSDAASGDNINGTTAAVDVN
T1 sequence (P29468 whole entry): as above
Sequence of ΔN-Pap1-His6 (P29468 19-568, stated change not applied): as the sequence (P29468 19-568, stated change not applied) above

B1: Sub1-V5-His6 (natural protein, S. cerevisiae, UniProt P54000 1-292, looked up)
chain: MSYYNRYRNKRRSDNGGGNLSNSNNNNGGMPSGLSASDAIFDLGKNKRVTVRQFRNINLIDIREYYLDSSTGEMKPGKKGISLTEDLYDELLKHRLNIDEALRRLGSKRPKTKMVRLLSDDEYEDDNNNDSTNNDKDKNGKDKNSPKKRREDKSKASNESHDLEPRSKKKKPAPPTLLPHEENIQNAEREANATLIIPGQAGRKQQEERKQKEKEEAEEAKAKAVAEQEKEAKAKEKIAEPEPEPVPTLQAKKEDIVSNINESKDANSSDEEFAQSLEAEMNKAEDDISEEE
With B1, in test [1], the binding result is given as “binds”.

B2: Nab6-V5-His6 (the last 210 amino acids) (domain or fragment, S. cerevisiae, UniProt Q03735 925-1134, looked up)
chain: GGGETGTANNTGHENESELEAENENGNETGSFGGLGLAVASSDVKRATSDETDYEDIFNKSSGSSDSSSDVEVIMHSPSDPEYALKSQTLRSSSQTVINSKRPVKIEDEEEAVGMSQLNYRSSLRQAPPRAPSTLSYNHSKNNETPMQDIFTNGETANNRKKKRGSFARHRTIPGSDVMAQYLAQVQHSTFMYAANILGASAEDNTHPDE
Regarding B2, the binding result in test [1] was “binds”.

B3: GST-Pta1 (1–300) (domain or fragment, S. cerevisiae, UniProt Q01329 1-300, looked up)
chain: MSSAEMEQLLQAKTLAMHNNPTEMLPKVLETTASMYHNGNLSKLKLPLAKFFTQLVLDVVSMDSPIANTERPFIAAQYLPLLLAMAQSTADVLVYKNIVLIMCASYPLVLDLVAKTSNQEMFDQLCMLKKFVLSHWRTAYPLRATVDDETDVEQWLAQIDQNIGVKLATIKFISEVVLSQTKSPSGNEINSSTIPDNHPVLNKPALESEAKRLLDMLLNYLIEEQYMVSSVFIGIINSLSFVIKRRPQTTIRILSGLLRFNVDAKFPLEGKSDLNYKLSKRFVERAYKNFVQFGLKNQII
As for B3, the binding result in test [2] is on record as “binds”.

B4: Fip1(1–206) (domain or fragment, S. cerevisiae, UniProt P45976 1-206, looked up)
chain: MSSSEDEDDKFLYGSDSELALPSSKRSRDDEADAGASSNPDIVKRQKFDSPVEETPATARDDRSDEDIYSDSSDDDSDSDLEVIISLGPDPTRLDAKLLDSYSTAATSSSKDVISVATDVSNTITKTSDERLITEGEANQGVTATTVKATESDGNVPKAMTGSIDLDKEGIFDSVGITTIDPEVLKEKPWRQPGANLSDYFNYGFN
Turning to B4, the binding result in test [3], in test [4], in test [5] and in test [1] was “binds” each time.
